Target: eIF4E
Assay: cell-based or functional assay

Photinus luciferase activity from the monocistronic PM construct in B104 cells, as a percentage of the activity with a control expression plasmid: 45 % of control
Photinus luciferase activity from the β-globin 5′ UTR monocistronic construct in B104 cells, as a percentage of the activity with a control expression plasmid: 43 % of control
Substance: dominant negative form of the eIF4E binding protein 4E-BP1 (from UniProt Q13541 1-118)
